In patent publication US20190225698A1 (JIANGSU HENGRUI MEDICINE, published 2019):
Numbering of substitutions follows the chain as printed.

T1: murine CD27 expressed on the cell surface of transfected HEK293 cells (murine, UniProt P41272 24-250)
T1 construct: whole, on cells; also called mouse CD27 antigen expressed by HEK293 cells
T1 sequence (looked up): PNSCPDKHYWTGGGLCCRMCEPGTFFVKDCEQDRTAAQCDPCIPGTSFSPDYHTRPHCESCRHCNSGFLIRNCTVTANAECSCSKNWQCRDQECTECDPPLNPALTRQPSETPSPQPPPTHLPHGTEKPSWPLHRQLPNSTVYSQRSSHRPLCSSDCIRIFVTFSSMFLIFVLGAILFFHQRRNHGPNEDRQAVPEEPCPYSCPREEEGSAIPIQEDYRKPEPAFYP

T2: murine FAS expressed on transfected HEK293 cells (murine, UniProt P25446 22-327)
T2 construct: whole, on cells
T2 sequence (looked up): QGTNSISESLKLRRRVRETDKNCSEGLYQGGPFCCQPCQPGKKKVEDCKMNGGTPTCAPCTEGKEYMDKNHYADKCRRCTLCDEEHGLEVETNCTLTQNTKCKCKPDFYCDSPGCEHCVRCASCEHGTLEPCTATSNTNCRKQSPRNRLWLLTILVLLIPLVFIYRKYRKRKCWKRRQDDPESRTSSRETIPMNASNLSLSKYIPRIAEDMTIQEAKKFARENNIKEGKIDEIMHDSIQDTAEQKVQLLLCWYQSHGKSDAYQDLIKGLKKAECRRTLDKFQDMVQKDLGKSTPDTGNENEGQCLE

T3: human CD27 expressed on the cell surface of transfected HEK293 cells (human, UniProt P26842 20-260)
T3 construct: whole, on cells; also called human CD27 antigen expressed by HEK293 cells
T3 sequence (looked up): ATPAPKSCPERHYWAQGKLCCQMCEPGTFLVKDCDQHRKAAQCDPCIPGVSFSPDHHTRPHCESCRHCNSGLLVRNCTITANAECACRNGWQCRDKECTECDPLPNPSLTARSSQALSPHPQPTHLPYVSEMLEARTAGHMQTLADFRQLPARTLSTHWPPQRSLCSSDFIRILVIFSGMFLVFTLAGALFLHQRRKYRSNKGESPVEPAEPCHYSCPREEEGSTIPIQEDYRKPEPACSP

T4: murine CD27-FcHis fusion protein (murine, UniProt P41272 24-182, limits assumed)
T4 construct: Immobilized directly on the chip by amino coupling; also called mouse CD27; not shown: Fc and His tag
T4 sequence (looked up): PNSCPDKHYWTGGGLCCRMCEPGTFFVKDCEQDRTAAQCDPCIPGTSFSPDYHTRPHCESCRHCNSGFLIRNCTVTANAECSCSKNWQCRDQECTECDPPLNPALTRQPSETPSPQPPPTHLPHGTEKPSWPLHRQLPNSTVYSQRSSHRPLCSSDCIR

B1: anti-CD27 antibody mAb076 (IgG1 form) (antibody, V domains shown)
VH: EVQLVESGGGLVQPGGSLRLSCAASGFTFSDYGIHWVRQAPGKGLEWIGWINPNRGSTNYAQKFQGRVTISRDNSKNTLYLQLNSLRAEDTAVYYCARDYGYTWYFDVWGQGTLVTVSS
VL: DIQLTQSPSSLSASVGDRVTITCRASQDISSVLAWYQQKPGKAPKLLIYAASSLQSGVPSRFSGSGSGTDFTLTISSLQPEDFATYYCQQRDAWPLTFGQGTKVEIK
notes: Human antibody from phage display
B2: anti-CD27 antibody mAb077 (IgG1 form) (antibody, V domains shown)
VH: B1 VH with D31G, N59K, Y100P
VL: B1 VL with V32D, S53T, L96P
notes: as for B1

What was measured:
[1] = biological target: T1, murine CD27 expressed on the cell …; experiment: flow cytometry on transfected HEK293 cells
[2] = biological target: T2, murine FAS expressed on transfected …; experiment: flow cytometry on transfected HEK293 cells
[3] = biological target: T3, human CD27 expressed on the cell …; experiment: flow cytometry on transfected HEK293 cells
[4] = biological target: T4, murine CD27-FcHis fusion protein; experiment: SPR (Biacore), murine CD27-FcHis immobilized, antibody as analyte
Method: The affinity of the antibody binding to […] CD27 was also determined using SPR. In this experiment, the murine CD27-FcHis fusion protein was directly immobilized on a CMS chip (600 RU) by amino coupling. Antibodies at different concentrations (0.39, 0.78, 1.56, 3.13, 6.25, 12.5, 25, 50, 100 nM) were loaded at a flow rate of […] for 30 seconds with a dissociation time of 1800 seconds.

[5] = biological target: T1, murine CD27 expressed on the cell …; experiment: flow cytometry on transfected HEK293 cells, 100 nM antibody
Method: (§1) The binding of antibody to human or murine CD27 expressed on cell surface is determined by fluorescence activated cell sorting (FACS). The corresponding antigen was transiently transfected into HEK293 cells using a vector plasmid and expressed. After 48 hours, cells were harvested and washed once with cold FACS buffer (PBS, 1% BSA), and then incubated with 100 nM corresponding antibody for 1 hour on ice. After washing twice with buffer, the cells were bound to Alexa Fluor 647-conjugated murine anti-human Fc antibody for 30 minutes on ice. After washing once, the cells were loaded onto a Beckman® CytoFlex flow cytometer for detection and the percentage of cells with binding signals was calculated.

[6] = biological target: T3, human CD27 expressed on the cell …; experiment: as above
Method: as §1

Binder | binding result [1] | binding result [2] | binding result [3] | binding result [4] | binding result [5] | binding result [6]
B1 | binds | no binding (tested: 100 nM) | binds | binds |  | 
B2 |  | no binding (tested: 100 nM) |  | binds | binds | binds
